The RNAGym collection of RNA variant scans (doi:10.7554/elife.80360)

B1: Hammerhead Ribozyme (parent)
chain: ACCGGAUGUGCUUUCCGGUCUGAUGAGUCCGUGAGGACGAAACAG

Variants of: B1
Assay: self-cleavage, relative activity (ratio to wild type); higher = more cleavage; co-transcriptional
With C16G A23U the self-cleavage was 0.295.
In the case of C16G A23C, the self-cleavage is reported as 0.369.
Variant C16G A23G has a self-cleavage of 0.406.
In the case of C16G G17A, the self-cleavage is reported as 0.532.
Variant C16G G17C has a self-cleavage of 0.445.
Work on C16G G17U yielded a self-cleavage of 0.681.
For C16G U32A, the self-cleavage was 1.03.
For C16G U32G, the self-cleavage was 0.882.
C16G U32C showed a self-cleavage of 0.717.
Work on C16A G25U yielded a self-cleavage of 0.331.
Variant C16A G25C has a self-cleavage of 0.372.
With C16A G25A the self-cleavage was 0.347.
With C16G G45C the self-cleavage was 0.397.
For C16G G45U, the self-cleavage was 0.467.
With C16G G45A the self-cleavage was 0.533.
Work on C16U A40C yielded a self-cleavage of 0.507.
C16U A40U showed a self-cleavage of 0.301.
C16U A40G showed a self-cleavage of 0.294.
For C16G G25A, the self-cleavage was 0.357.
Work on C16G G25C yielded a self-cleavage of 0.285.
For C16G G25U, the self-cleavage was 0.384.
For C16A G31A, the self-cleavage was 1.22.
In the case of C16A G31U, the self-cleavage is reported as 1.29.
Work on C16A G31C yielded a self-cleavage of 1.04.
C16G G35A showed a self-cleavage of 0.459.
C16G G35C gave a self-cleavage of 0.44.
With C16G G35U the self-cleavage was 0.472.
In the case of C16G A44U, the self-cleavage is reported as 0.335.
C16G A44C showed a self-cleavage of 0.373.
Variant C16G A44G has a self-cleavage of 1.18.
With C16G A42C the self-cleavage was 0.334.
C16G A42G showed a self-cleavage of 0.346.
With C16G A42U the self-cleavage was 0.26.
C16A U21C showed a self-cleavage of 0.276.
C16A U21A gave a self-cleavage of 0.668.
C16A U21G gave a self-cleavage of 0.316.
With C16A G45A the self-cleavage was 0.574.
In the case of C16A G45U, the self-cleavage is reported as 0.563.
C16A G45C gave a self-cleavage of 0.501.
In the case of C16G A41G, the self-cleavage is reported as 0.398.
C16G A41U gave a self-cleavage of 0.393.
Work on C16G A41C yielded a self-cleavage of 0.376.
In the case of C16A C43G, the self-cleavage is reported as 0.294.
Work on C16A C43U yielded a self-cleavage of 0.438.
C16A C43A showed a self-cleavage of 0.304.
C16A G36A showed a self-cleavage of 0.523.
C16A G36U gave a self-cleavage of 0.434.
C16A G36C showed a self-cleavage of 0.38.
In the case of C16G C38G, the self-cleavage is reported as 0.358.
In the case of C16G C38A, the self-cleavage is reported as 0.453.
For C16G C38U, the self-cleavage was 0.619.
Variant C16G G27C has a self-cleavage of 0.35.
C16G G27U showed a self-cleavage of 0.304.
In the case of C16G G27A, the self-cleavage is reported as 0.42.
C16A G27C gave a self-cleavage of 0.571.
In the case of C16A G27A, the self-cleavage is reported as 0.715.
For C16A G27U, the self-cleavage was 0.534.
C16G U24G gave a self-cleavage of 0.611.
Variant C16G U24C has a self-cleavage of 0.942.
C16G U24A gave a self-cleavage of 0.751.
With C16U A37U the self-cleavage was 0.848.
Work on C16U A37G yielded a self-cleavage of 1.02.
For C16U A37C, the self-cleavage was 0.843.
Work on C16A G17U yielded a self-cleavage of 0.325.
In the case of C16A G17A, the self-cleavage is reported as 0.374.
Work on C16A G17C yielded a self-cleavage of 0.386.
For C16G G39C, the self-cleavage was 0.368.
C16G G39A gave a self-cleavage of 0.254.
Variant C16G G39U has a self-cleavage of 0.345.
Work on C16U A44C yielded a self-cleavage of 0.586.
For C16U A44U, the self-cleavage was 0.845.
For C16U A44G, the self-cleavage was 1.34.
C16U A41G gave a self-cleavage of 0.376.
In the case of C16U A41U, the self-cleavage is reported as 0.264.
Variant C16U A41C has a self-cleavage of 0.301.
For C16U A26G, the self-cleavage was 0.358.
Work on C16U A26C yielded a self-cleavage of 0.467.
In the case of C16U A26U, the self-cleavage is reported as 0.816.
In the case of C16U A23G, the self-cleavage is reported as 0.423.
In the case of C16U A23C, the self-cleavage is reported as 0.474.
Work on C16U A23U yielded a self-cleavage of 0.358.
Work on C16A G35C yielded a self-cleavage of 0.573.
With C16A G35U the self-cleavage was 0.563.
C16A G35A gave a self-cleavage of 0.727.
C16G C20U showed a self-cleavage of 0.408.
Variant C16G C20A has a self-cleavage of 0.336.
C16G C20G showed a self-cleavage of 0.317.
For C16G C30G, the self-cleavage was 0.473.
For C16G C30A, the self-cleavage was 0.712.
Work on C16G C30U yielded a self-cleavage of 0.899.
Work on C16G G33U yielded a self-cleavage of 1.09.
C16G G33C showed a self-cleavage of 0.956.
C16G G33A showed a self-cleavage of 0.994.
In the case of C16U A42C, the self-cleavage is reported as 0.363.
In the case of C16U A42G, the self-cleavage is reported as 0.232.
C16U A42U gave a self-cleavage of 0.273.
With C16G G22C the self-cleavage was 0.284.
For C16G G22A, the self-cleavage was 0.336.
In the case of C16G G22U, the self-cleavage is reported as 0.334.
With C16A U32C the self-cleavage was 1.09.
Variant C16A U32A has a self-cleavage of 1.07.
C16A U32G showed a self-cleavage of 0.899.
Work on C16G G31C yielded a self-cleavage of 0.823.
Variant C16G G31U has a self-cleavage of 1.05.
In the case of C16G G31A, the self-cleavage is reported as 1.16.
Work on C16G G18C yielded a self-cleavage of 0.376.
In the case of C16G G18U, the self-cleavage is reported as 0.744.
C16G G18A gave a self-cleavage of 0.533.
Work on C16A U19G yielded a self-cleavage of 0.295.
C16A U19C showed a self-cleavage of 0.39.
For C16A U19A, the self-cleavage was 0.34.
With C16G U28A the self-cleavage was 0.407.
For C16G U28C, the self-cleavage was 0.269.
Variant C16G U28G has a self-cleavage of 0.592.
Work on C16A G22C yielded a self-cleavage of 0.294.
With C16A G22U the self-cleavage was 0.329.
For C16A G22A, the self-cleavage was 0.299.
C16U C20A gave a self-cleavage of 0.524.
For C16U C20G, the self-cleavage was 0.307.
With C16U C20U the self-cleavage was 0.651.
In the case of C16A G33A, the self-cleavage is reported as 1.29.
With C16A G33U the self-cleavage was 1.4.
For C16A G33C, the self-cleavage was 1.24.
For C16A G39C, the self-cleavage was 0.337.
For C16A G39A, the self-cleavage was 0.356.
With C16A G39U the self-cleavage was 0.336.
With C16G the self-cleavage was 1.02.
C16U showed a self-cleavage of 0.983.
Work on C16U A34U yielded a self-cleavage of 0.755.
With C16U A34C the self-cleavage was 1.
For C16U A34G, the self-cleavage was 1.08.
C16A U24C gave a self-cleavage of 1.33.
Variant C16A U24A has a self-cleavage of 1.34.
Variant C16A U24G has a self-cleavage of 0.87.
C16A G18U gave a self-cleavage of 0.525.
C16A G18C gave a self-cleavage of 0.341.
Variant C16A G18A has a self-cleavage of 0.351.
Variant C16G C29A has a self-cleavage of 0.39.
Variant C16G C29U has a self-cleavage of 0.646.
In the case of C16G C29G, the self-cleavage is reported as 0.496.
In the case of C16G A37G, the self-cleavage is reported as 0.533.
C16G A37U gave a self-cleavage of 0.606.
For C16G A37C, the self-cleavage was 0.737.
Variant C16G A40C has a self-cleavage of 0.372.
C16G A40U gave a self-cleavage of 0.321.
In the case of C16G A40G, the self-cleavage is reported as 0.431.
In the case of C16G U19C, the self-cleavage is reported as 0.344.
C16G U19G gave a self-cleavage of 0.33.
Variant C16G U19A has a self-cleavage of 0.253.
In the case of C16G A34C, the self-cleavage is reported as 0.647.
With C16G A34G the self-cleavage was 0.655.
Work on C16G A34U yielded a self-cleavage of 0.709.
With C16G A26C the self-cleavage was 0.305.
Work on C16G A26U yielded a self-cleavage of 0.433.
Variant C16G A26G has a self-cleavage of 0.289.
Variant C16G U21C has a self-cleavage of 0.354.
Variant C16G U21A has a self-cleavage of 0.349.
Work on C16G U21G yielded a self-cleavage of 0.278.
C16G G36U gave a self-cleavage of 0.314.
Work on C16G G36C yielded a self-cleavage of 0.362.
In the case of C16G G36A, the self-cleavage is reported as 0.414.
In the case of C16G C43G, the self-cleavage is reported as 0.265.
C16G C43A gave a self-cleavage of 0.337.
For C16G C43U, the self-cleavage was 0.285.
Variant C16A U28A has a self-cleavage of 0.434.
In the case of C16A U28C, the self-cleavage is reported as 0.722.
C16A U28G showed a self-cleavage of 0.638.
